From FireProtDB (doi:10.1002/pro.5560010709)

B1: Ribonuclease pancreatic, P61823 (parent)
chain: MALKSLVLLSLLVLVLLLVRVQPSLGKETAAAKFERQHMDSSTSAASSSNYCNQMMKSRNLTKDRCKPVNTFVHESLADVQAVCSQKNVACKNGQTNCYQSYSTMSITDCRETGSSKYPNCAYKTTQANKHIIVACEGNPYVPVHFDASV

Variants of: B1
Settings: Bos taurus, pH 4.2, Thermal, CD, Sodium acetate 0.01 M, NaCl 0.1 M, reversible: yes, structure 1RTB, whole UniProt chain shown; for ddG of mutation (higher = less stable) / heat capacity change of unfolding: 56.2 °C

P140G
ddG of mutation (higher = less stable): 2.8 kcal/mol | heat capacity change of unfolding: 2.2 kcal/mol/K | Tm: 45.5 °C | change of melting temperature, mutant - wild type (higher = more stable): -10.5 °C

P140A
ddG of mutation (higher = less stable): 3.2 kcal/mol | heat capacity change of unfolding: 2.2 kcal/mol/K | Tm: 45.5 °C | change of melting temperature, mutant - wild type (higher = more stable): -10.5 °C

P119S
ddG of mutation (higher = less stable): 2.1 kcal/mol | heat capacity change of unfolding: 2.2 kcal/mol/K | Tm: 47.5 °C | change of melting temperature, mutant - wild type (higher = more stable): -8.5 °C

P119A
ddG of mutation (higher = less stable): 2.7 kcal/mol | heat capacity change of unfolding: 2.2 kcal/mol/K | Tm: 46.5 °C | change of melting temperature, mutant - wild type (higher = more stable): -9.5 °C

P119A P140G
ddG of mutation (higher = less stable): 4.2 kcal/mol | heat capacity change of unfolding: 2.2 kcal/mol/K | Tm: 36 °C | change of melting temperature, mutant - wild type (higher = more stable): -20 °C
